Data: patent US20240352155A1 (CHIMAGEN BIOSCIENCES, published 2024)
Where two headings read alike, the source gives them in different places.

T1: CD20 (stably transfected into K562 cells) (UniProt P11836 1-297, limits assumed)
T1 sequence (looked up): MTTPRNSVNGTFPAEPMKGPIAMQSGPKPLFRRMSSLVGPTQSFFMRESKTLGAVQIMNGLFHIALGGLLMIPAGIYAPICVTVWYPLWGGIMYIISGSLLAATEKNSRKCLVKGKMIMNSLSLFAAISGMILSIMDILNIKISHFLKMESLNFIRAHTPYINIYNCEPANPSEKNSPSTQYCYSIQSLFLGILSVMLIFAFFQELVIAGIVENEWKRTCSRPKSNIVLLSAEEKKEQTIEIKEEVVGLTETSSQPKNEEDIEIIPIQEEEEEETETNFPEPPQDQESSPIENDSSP

T2: human CD19 antigen (human, UniProt P15391 20-291)
T2 sequence (looked up): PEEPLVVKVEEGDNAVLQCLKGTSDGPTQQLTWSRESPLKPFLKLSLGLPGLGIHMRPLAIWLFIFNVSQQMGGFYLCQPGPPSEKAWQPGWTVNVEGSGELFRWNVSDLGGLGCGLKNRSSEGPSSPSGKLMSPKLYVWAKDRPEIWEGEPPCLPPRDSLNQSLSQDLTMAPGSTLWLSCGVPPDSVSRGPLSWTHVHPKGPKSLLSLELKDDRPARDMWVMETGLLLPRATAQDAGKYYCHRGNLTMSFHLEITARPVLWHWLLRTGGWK


How the values were obtained:
[1] = target: T1, CD20 (stably transfected into K562 …); assay: cell-based or functional assay
human CD3ε antigen [2] = target: T3, human CD3ε antigen (human, UniProt P07766 23-126); assay: BIAcore (SPR), antigen immobilized on chip, antibody injected at 5 concentrations
T3 construct: Immobilized on the BIAcore chip; The construct (tag, limits) is not described
T3 sequence (P07766 23-126): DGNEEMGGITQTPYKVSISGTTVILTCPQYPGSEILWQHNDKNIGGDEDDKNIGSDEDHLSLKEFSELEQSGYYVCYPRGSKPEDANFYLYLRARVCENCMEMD

human CD19 antigen [3] = target: T2, human CD19 antigen; assay: BIAcore (SPR), CD19 captured on anti-His chip, antibody injected at 5 concentrations
human CD3ε antigen [4] = target: T3, human CD3ε antigen; assay: BIAcore (SPR), antigen immobilized on chip, antibody injected at 5 concentrations; remark: listed apart in the source
human CD19 antigen [5] = target: T2, human CD19 antigen; assay: BIAcore (SPR), CD19 captured on anti-His chip, antibody injected at 5 concentrations; remark: listed apart in the source

Binder | EC50 of killing of K562-CD20 target cells by PBMC effector cells (absorbance at OD490) [1] [pM] | Kd (human CD3ε antigen [2]) [nM] | koff (human CD3ε antigen [2]) [s⁻¹] | kon (human CD3ε antigen [2]) [M⁻¹ s⁻¹] | Kd (human CD19 antigen [3]) [nM] | koff (human CD19 antigen [3]) [s⁻¹] | kon (human CD19 antigen [3]) [M⁻¹ s⁻¹] | Kd (human CD3ε antigen [4]) [nM] | koff (human CD3ε antigen [4]) [s⁻¹] | kon (human CD3ε antigen [4]) [M⁻¹ s⁻¹] | Kd (human CD19 antigen [5]) [nM] | koff (human CD19 antigen [5]) [s⁻¹] | kon (human CD19 antigen [5]) [M⁻¹ s⁻¹]
CD3XCD19XCD20 tri-specific antibody (antibody #1) (other, Tri-specific antibody of four polypeptide chains) chain 1: EIVLTQSPATLSVTPGERATLSCSASSSVSYMHWYQKKPGQAPRLLIYDTSKLASGIPARFSGSGSGTDFTLTISSLEPEDFAVYYCFQGSVYPFTFGCGTKLEIKRTVAAEVQLVESGGGLVQPGGSLRLSCAASGFTFSTYAMNWVRQAPGKGLEWVGRIRSKYNNYATYYADSVKGRFTISRDDSKNSLYLQMNSLRAEDTAVYYCVRHGNFGNSYVSWFAYWGQGTLVTVSS chain 2: QAVVTQEPSLTVSPGGTVTLTCRSSTGAVTTSNYANWVQQKPGQAPRGLIGGTNKRAPWTPARFSGSLLGGKAALTLSGAQAEDEADYYCALWYSNLWVFGGGTKLTVLRTVAAQVQLQESGPGLVKPSQTLSLTCTVSGGSISTSGMGVGWIRDHPGKCLEWIGHIWWDDDKRYNPALKSRVTISVDTSKNQFSLKLSSVTAADTAVYYCARMELWSYYFDYWGQGTTLTVSSASEPKSSDKTHTCPPCPAPPVAGPSVFLFPPKPKDTLMISRTPEVTCVVVDVSQEDPEVKFNWYVDGVEVHNAKTKPREEQFNSTYRVVSVLTVLHQDWLNGKEYKCKVSNKGLPSSIEKTISKAKGQPREPQVYTLPPSRDELTKNQVSLWCLVKGFYPSDIAVEWESNGQPENNYKTTPPVLDSDGSFFLYSKLTVDKSRWQQGNVFSCSVMHEALHNHYTQKSLSLSP heavy: QVQLVQSGAEVKKPGSSVKVSCKASGYAFSYSWINWVRQAPGQGLEWMGRIFPGDGDTDYNGKFKGRVTITADKSTSTAYMELSSLRSEDTAVYYCARNVFDGYWLVYWGQGTLVTVSSASTKGPSVFPLAPSSKSTSGGTAALGCLVKDYFPEPVTVSWNSGALTSGVHTFPAVLQSSGLYSLSSVVTVPSSSLGTQTYICNVNHKPSNTKVDKKVEPKSCDKTHTCPPCPAPPVAGPSVFLFPPKPKDTLMISRTPEVTCVVVDVSQEDPEVKFNWYVDGVEVHNAKTKPREEQFNSTYRVVSVLTVLHQDWLNGKEYKCKVSNKGLPSSIEKTISKAKGQPREPQVYTLPPSRDELTKNQVSLSCAVKGFYPSDIAVEWESNGQPENNYKTTPPVLDSDGSFFLVSKLTVDKSRWQQGNVFSCSVMHEALHNRFTQKSLSLSP light: DIVMTQTPLSLPVTPGEPASISCRSSKSLLHSNGITYLYWYLQKPGQSPQLLIYQMSNLVSGVPDRFSGSGSGTDFTLKISRVEAEDVGVYYCAQNLELPYTFGGGTKVEIKRTVAAPSVFIFPPSDEQLKSGTASVVCLLNNFYPREAKVQWKVDNALQSGNSQESVTEQDSKDSTYSLSSTLTLSKADYEKHKVYACEVTHQGLSSPVTKSFNRGEC | 1.22 | 25 | 0.00835 | 334000 | 1.32 | 0.000273 | 207000 |  |  |  |  |  | 
CD3XCD19 bispecific antibody (antibody A) (bispecific antibody, Three-polypeptide bispecific made in CHO3E7 cells; The description speaks of a disulfide bond between CD19 VL and VH, charge substitutions and a knob-in-hole Fc) chain 1: EIVLTQSPATLSVTPGERATLSCSASSSVSYMHWYQKKPGQAPRLLIYDTSKLASGIPARFSGSGSGTDFTLTISSLEPEDFAVYYCFQGSVYPFTFGCGTKLEIKRTVAAEVQLVESGGGLVQPGGSLRLSCAASGFTFNTYAMNWVRKAPGKGLEWVGRIRSKYNNYATYYADSVDKGRFTISRDDSKNSLYLQMNSLKTEDTAVYYCVRHGNFGNSYVSWFAYWGQGTLVTVSS chain 2: EAVVTQEPSLTVSPGGTVTLTCRSSTGAVTTSNYANWVQDKPGQAPRGLIGGTNKRAPWTPARFSGSLLGGKAALTITGAQPEDEAEYYCALWYSNLWVFGGGTKLTVLRTVAAQVQLQESGPGLVKPSQTLSLTCTVSGGSISTSGMGVGWIRDHPGKCLEWIGHIWWDDDKRYNPALKSRVTISVDTSKNQFSLKLSSVTAADTAVYYCARMELWSYYFDYWGQGTTLTVSSASEPKSDKTHTCPPCPAPPVAGGPSVFLFPPKPKDTLMISRTPEVTCVVVDVSQEDPEVKFNWYVDGVEVHNAKTKPREEQFNSTYRVVSVLTVLHQDWLNGKEYKCKVSNKGLPSSIEKTISKAKGQPREPQVYTLPPCRDELTKNQVSLWCLVKGFYPSDIAVEWESNGQPENNYKTTPPVLDSDGSFFLYSKLTVDKSRWQQGNVFSCSVMHEALHNHYTQKSLSLSPGK chain 3: DKTHTCPPCPAPPVAGGPSVFLFPPKPKDTLMISRTPEVTCVVVDVSQEDPEVKFNWYVDGVEVHNAKTKPREEQFNSTYRVVSVLTVLHQDWLNGKEYKCKVSNKGLPSSIEKTISKAKGQPREPQVCTLPPSRDELTKNQVSLSCAVKGFYPSDIAVEWESNGQPENNYKTTPPVLDSDGSFFLVSKLTVDKSRWQQGNVFSCSVMHEALHNRFTQKSLSLSPGK |  |  |  |  |  |  |  | 31.4 | 0.0153 | 488000 | 1.83 | 0.000669 | 365000
